From IntAct's records for PubMed 31515488

B1: PHD finger protein 1 (Homo sapiens), O43189 (parent)
chain: MAQPPRLSRSGASSLWDPASPAPTSGPRPRLWEGQDVLARWTDGLLYLGTIKKVDSAREVCLVQFEDDSQFLVLWKDISPAALPGEELLCCVCRSETVVPGNRLVSCEKCRHAYHQDCHVPRAPAPGEGEGTSWVCRQCVFAIATKRGGALKKGPYARAMLGMKLSLPYGLKGLDWDAGHLSNRQQSYCYCGGPGEWNLKMLQCRSCLQWFHEACTQCLSKPLLYGDRFYEFECCVCRGGPEKVRRLQLRWVDVAHLVLYHLSVCCKKKYFDFDREILPFTSENWDSLLLGELSDTPKGERSSRLLSALNSHKDRFISGREIKKRKCLFGLHARMPPPVEPPTGDGALTSFPSGQGPGGGVSRPLGKRRRPEPEPLRRRQKGKVEELGPPSAVRNQPEPQEQRERAHLQRALQASVSPPSPSPNQSYQGSSGYNFRPTDARCLPSSPIRMFASFHPSASTAGTSGDSGPPDRSPLELHIGFPTDIPKSAPHSMTASSSSVSSPSPGLPRRSAPPSPLCRSLSPGTGGGVRGGVGYLSRGDPVRVLARRVRPDGSVQYLVEWGGGGIF
partner: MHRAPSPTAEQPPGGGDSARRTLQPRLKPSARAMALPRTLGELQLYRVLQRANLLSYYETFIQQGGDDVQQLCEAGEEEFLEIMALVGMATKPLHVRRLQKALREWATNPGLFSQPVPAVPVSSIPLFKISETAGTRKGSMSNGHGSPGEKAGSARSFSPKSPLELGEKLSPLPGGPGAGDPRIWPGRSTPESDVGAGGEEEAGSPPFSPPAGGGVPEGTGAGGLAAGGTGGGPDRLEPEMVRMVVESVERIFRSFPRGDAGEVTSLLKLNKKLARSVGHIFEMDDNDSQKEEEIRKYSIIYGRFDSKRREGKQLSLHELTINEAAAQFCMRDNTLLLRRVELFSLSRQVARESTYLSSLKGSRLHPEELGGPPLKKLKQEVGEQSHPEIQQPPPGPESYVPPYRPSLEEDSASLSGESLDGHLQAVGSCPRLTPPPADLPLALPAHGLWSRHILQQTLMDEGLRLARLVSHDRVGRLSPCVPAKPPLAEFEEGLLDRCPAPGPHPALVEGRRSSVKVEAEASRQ
B2: Kinetochore protein NDC80 homolog (Homo sapiens), O14777 (parent)
chain: MKRSSVSSGGAGRLSMQELRSQDVNKQGLYTPQTKEKPTFGKLSINKPTSERKVSLFGKRTSGHGSRNSQLGIFSSSEKIKDPRPLNDKAFIQQCIRQLCEFLTENGYAHNVSMKSLQAPSVKDFLKIFTFLYGFLCPSYELPDTKFEEEVPRIFKDLGYPFALSKSSMYTVGAPHTWPHIVAALVWLIDCIKIHTAMKESSPLFDDGQPWGEETEDGIMHNKLFLDYTIKCYESFMSGADSFDEMNAELQSKLKDLFNVDAFKLESLEAKNRALNEQIARLEQEREKEPNRLESLRKLKASLQGDVQKYQAYMSNLESHSAILDQKLNGLNEEIARVELECETIKQENTRLQNIIDNQKYSVADIERINHERNELQQTINKLTKDLEAEQQKLWNEELKYARGKEAIETQLAEYHKLARKLKLIPKGAENSKGYDFEIKFNPEAGANCLVKYRAQVYVPLKELLNETEEEINKALNKKMGLEDTLEQLNAMITESKRSVRTLKEEVQKLDDLYQQKIKEAEEEDEKCASELESLEKHKHLLESTVNQGLSEAMNELDAVQREYQLVVQTTTEERRKVGNNLQRLLEMVATHVGSVEKHLEEQIAKVDREYEECMSEDLSENIKEIRDKYEKKATLIKSSEE
partner: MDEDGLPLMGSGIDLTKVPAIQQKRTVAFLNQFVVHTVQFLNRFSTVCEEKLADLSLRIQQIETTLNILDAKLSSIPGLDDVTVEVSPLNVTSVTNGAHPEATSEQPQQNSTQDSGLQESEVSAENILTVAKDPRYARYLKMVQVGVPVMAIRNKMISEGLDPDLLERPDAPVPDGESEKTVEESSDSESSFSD
B3: Proteasome subunit beta type-1 (Homo sapiens), P20618 (parent)
chain: MLSSTAMYSAPGRDLGMEPHRAAGPLQLRFSPYVFNGGTILAIAGEDFAIVASDTRLSEGFSIHTRDSPKCYKLTDKTVIGCSGFHGDCLTLTKIIEARLKMYKHSNNKAMTTGAIAAMLSTILYSRRFFPYYVYNIIGGLDEEGKGAVYSFDPVGSYQRDSFKAGGSASAMLQPLLDNQVGFKNMQNVEHVPLSLDRAMRLVKDVFISAAERDVYTGDALRICIVTKEGIREETVSLRKD
partner: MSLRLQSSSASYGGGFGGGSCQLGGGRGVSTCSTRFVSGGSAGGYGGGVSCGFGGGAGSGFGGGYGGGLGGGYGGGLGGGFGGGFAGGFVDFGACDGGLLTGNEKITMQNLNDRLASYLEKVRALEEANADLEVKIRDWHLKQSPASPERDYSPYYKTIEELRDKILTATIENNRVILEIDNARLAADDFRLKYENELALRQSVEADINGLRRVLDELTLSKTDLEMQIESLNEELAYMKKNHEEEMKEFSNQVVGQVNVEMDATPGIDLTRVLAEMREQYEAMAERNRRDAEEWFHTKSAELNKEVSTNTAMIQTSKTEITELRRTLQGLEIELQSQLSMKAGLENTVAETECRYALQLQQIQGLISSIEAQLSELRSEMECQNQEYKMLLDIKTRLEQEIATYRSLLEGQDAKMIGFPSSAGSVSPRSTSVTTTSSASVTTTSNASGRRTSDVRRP

Variants of: B1
Conditions: with nab2_human NAB2, Q15742

| effect of a mutation on the interaction | Variant |
| --- | --- |
| with no effect | S14L |

Variants of: B2
Conditions: with wasc3_human WASHC3, Q9Y3C0

| effect of a mutation on the interaction | Variant |
| --- | --- |
| with no effect | S55P |
| with no effect | A605P |
| with no effect | E348D |

Variants of: B3
Conditions: with KRT13, P13646

| effect of a mutation on the interaction | Variant |
| --- | --- |
| with no effect | P11A |
